Measured values: US20250250358A1

How the values were obtained:
[1] = target: PD-L1 on cells (UniProt Q9NZQ7); assay: flow cytometry, T24 R-WT cells incubated first with Atezolizumab Fab (50 nM); Isotype Control-647 gives 480 [Cont.]
[2] = target: PD-L1 on cells (UniProt Q9NZQ7); assay: flow cytometry, T24 R-WT cells incubated first with Atezolizumab Fab (50 nM); negative control [Cont.]
[3] = target: EGFR (UniProt P00533); assay: Fab KD, method not stated

Chain of UniProt Q9NZQ7 (Q9NZQ7 19-290 limits assumed): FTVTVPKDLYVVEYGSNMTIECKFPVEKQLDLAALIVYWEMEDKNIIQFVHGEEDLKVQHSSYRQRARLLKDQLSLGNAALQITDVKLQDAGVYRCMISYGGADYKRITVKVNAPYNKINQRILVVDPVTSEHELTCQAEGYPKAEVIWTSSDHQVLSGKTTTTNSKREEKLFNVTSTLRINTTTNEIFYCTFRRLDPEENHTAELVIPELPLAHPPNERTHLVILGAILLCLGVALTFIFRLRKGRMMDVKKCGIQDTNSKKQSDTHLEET
Chain of Necitumumab Fab (VH): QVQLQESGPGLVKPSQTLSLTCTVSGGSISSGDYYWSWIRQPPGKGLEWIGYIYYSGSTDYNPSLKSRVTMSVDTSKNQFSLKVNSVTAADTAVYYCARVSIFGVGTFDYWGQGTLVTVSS
Chain of Necitumumab Fab (VL): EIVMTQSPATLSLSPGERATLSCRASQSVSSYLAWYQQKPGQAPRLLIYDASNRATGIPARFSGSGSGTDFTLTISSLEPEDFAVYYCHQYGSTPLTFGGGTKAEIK

Row | Kd [3] [nM] | Molecule | further results
1 | – | PD-L1 (D8T4X)-647 antibody | Median (APC) [1]: 8120
2 | – | Isotype Control-647 (antibody) | Median (APC) [2]: 480
3 | 6.1 | Necitumumab Fab | –
4 | 113 | Matuzumab Fab (Fab, INN chains, looked up, V domains shown, Fab) VH: QVQLVQSGAEVKKPGASVKVSCKASGYTFTSHWMHWVRQAPGQGLEWIGEFNPSNGRTNYNEKFKSKATMTVDTSTNTAYMELSSLRSEDTAVYYCASRDYDYDGRYFDYWGQGTLVTVSS VL: DIQMTQSPSSLSASVGDRVTITCSASSSVTYMYWYQQKPGKAPKLLIYDTSNLASGVPSRFSGSGSGTDYTFTISSLQPEDIATYYCQQWSSHIFTFGQGTKVEIK | –
